According to US8304189, “Nucleic acid molecules containing recombination sites and methods of using the same” (Life Technologies Corporation):

Biological target: Vaccinia DNA topoisomerase I (Vaccinia virus, UniProt P68698 P68698:1-314)
Experiment: covalent charging of vector at CCCTT, 37 C 15 min, NEB buffer 1; charged vector cloned the test insert with 93.6-95.1% efficiency
Conditions: ligated to EcoRI-cut pCR8/GW ends
Experimental: TOPO charging. To 5 μg of ligated DNA, 3 μg of TOPO-5 oligonucleotide (5'-CAACA CTATC GGAAT A-3' (SEQ ID NO: 66), phosphorylated on the 5' end), 10 μl 5× NEB #1 (New England Biolabs, Inc., Beverly, Mass. cat. no. M0202S), and 5 μg of Vaccinia Topoisomerase I was added and the volume adjusted to 50 μl with water. This reaction was incubated at 37° C. for 15 minutes before addition of 5 μl of 10× TOPO Stop Buffer (1 M Tris-HCl, pH 7.5, 500 mM EDTA). The TOPO adapted vector was then gel purified and quantified using the Hoechst dye assay.
Testing of TOPO cloning efficiency. TOPO cloning efficiency was determined using a 500 bp PCR fragment containing a bacterial lac promoter driving the lacZ alpha fragment, this positive control fragment is found in some of Invitrogen's TOPO T/A cloning kits, for example, cat. no. K4300-01. Cloning of this fragment generated blue colonies on X-gal plates and colonies without the cloned fragment were white. The ratio of the total number of blue colonies to the total number of colonies was representative of the efficiency of the TOPO reaction. Twenty nanograms of the Taq polymerase generated 500 bp PCR product was used per TOPO reaction.
T/A TOPO QC testing. The pCR8/GW/TOPO system was tested by TOPO cloning a Platinum taq-generated 500 bp test insert and selected ORFs into pCR8/GW/TOPO. TOPO cloning efficiency was measured using standard QC procedures. […]

B1: TOPO adapter duplex (TOPO-1/TOPO-5/TOPO-4) (dsDNA)
DNA 1: AATTCGCCCTTATTCCGATAGTG
DNA 2: CAACACTATCGGAATA
DNA 3: AGGGCG
modifications: 5'-phosphate on TOPO-5
B1: binds.
